From the supplement of paper PMC9112550, “Optimization of the antimicrobial peptide Bac7 by deep mutational scanning” (BMC Biology, 2022)

Test system: Escherichia coli TOP10
Assay: shrunken log2 fold change of peptide-encoding DNA abundance (4.5 h post-induction vs induction); higher = less antimicrobial activity (less host growth inhibition)
Details: time post-induction: 4.5 h; library: site-saturation at positions 5, 18, 19, 20
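Note: peptides expressed intracellularly from a pBAD plasmid library in pooled LB shake-flask culture, induced with 0.3% L-arabinose, DNA abundance read by NGS, three biological replicates, DESeq2 with apeglm shrinkage.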

Sequence: RRIRWRPPRLPRPRPRPLYDPRP
- shrunken log2 fold change: -0.0701

Sequence: RRIRWRPPRLPRPRPRPFILPRP
- shrunken log2 fold change: -0.476

Sequence: RRIRWRPPRLPRPRPRPIRLPRP
- shrunken log2 fold change: -0.268

Sequence: RRIRSRPPRLPRPRPRPYGWPRP
- shrunken log2 fold change: 0.328

Sequence: RRIRERPPRLPRPRPRPWYNPRP
- shrunken log2 fold change: -0.174

Sequence: RRIRVRPPRLPRPRPRPFSAPRP
- shrunken log2 fold change: -0.132

Sequence: RRIRCRPPRLPRPRPRPWPWPRP
- shrunken log2 fold change: 0.0405

Sequence: RRIRPRPPRLPRPRPRPSLWPRP
- shrunken log2 fold change: 0.471

Sequence: RRIRVRPPRLPRPRPRPDKFPRP
- shrunken log2 fold change: 0.0677

Sequence: RRIRKRPPRLPRPRPRPTVSPRP
- shrunken log2 fold change: 0.099

Sequence: RRIRERPPRLPRPRPRPESCPRP
- shrunken log2 fold change: -0.0125

Sequence: RRIRWRPPRLPRPRPRPFTCPRP
- shrunken log2 fold change: 0.000407

Sequence: RRIRWRPPRLPRPRPRPPYSPRP
- shrunken log2 fold change: -0.262

Sequence: RRIRYRPPRLPRPRPRPKHKPRP
- shrunken log2 fold change: -0.545

Sequence: RRIRNRPPRLPRPRPRPWADPRP
- shrunken log2 fold change: -0.124

Sequence: RRIRGRPPRLPRPRPRPNIQPRP
- shrunken log2 fold change: 0.398

Sequence: RRIRSRPPRLPRPRPRPPATPRP
- shrunken log2 fold change: 0.725

Sequence: RRIRERPPRLPRPRPRPGRLPRP
- shrunken log2 fold change: -0.263

Sequence: RRIRSRPPRLPRPRPRPMWVPRP
- shrunken log2 fold change: -0.0635

Sequence: RRIRRRPPRLPRPRPRPSWWPRP
- shrunken log2 fold change: 0.327

Sequence: RRIRKRPPRLPRPRPRPTFIPRP
- shrunken log2 fold change: -0.0546

Sequence: RRIRWRPPRLPRPRPRPALKPRP
- shrunken log2 fold change: 0.0103

Sequence: RRIRDRPPRLPRPRPRPPDEPRP
- shrunken log2 fold change: 0.00333

Sequence: RRIRYRPPRLPRPRPRPIIGPRP
- shrunken log2 fold change: -0.178

Sequence: RRIRFRPPRLPRPRPRPGCVPRP
- shrunken log2 fold change: 0.15

Sequence: RRIRMRPPRLPRPRPRPKLMPRP
- shrunken log2 fold change: 0.718

Sequence: RRIRSRPPRLPRPRPRPRNDPRP
- shrunken log2 fold change: -0.181

Sequence: RRIRYRPPRLPRPRPRPHDHPRP
- shrunken log2 fold change: 1.33

Sequence: RRIRQRPPRLPRPRPRPKLVPRP
- shrunken log2 fold change: -0.0518

Sequence: RRIRSRPPRLPRPRPRPCLTPRP
- shrunken log2 fold change: -0.293

Sequence: RRIRARPPRLPRPRPRPWIFPRP
- shrunken log2 fold change: -0.114

Sequence: RRIRPRPPRLPRPRPRPQQHPRP
- shrunken log2 fold change: -0.0726

Sequence: RRIRPRPPRLPRPRPRPEHEPRP
- shrunken log2 fold change: 0.0185

Sequence: RRIRKRPPRLPRPRPRPAGDPRP
- shrunken log2 fold change: 0.646

Sequence: RRIRQRPPRLPRPRPRPGFAPRP
- shrunken log2 fold change: 0.249

Sequence: RRIRWRPPRLPRPRPRPWCSPRP
- shrunken log2 fold change: -0.329

Sequence: RRIRLRPPRLPRPRPRPANMPRP
- shrunken log2 fold change: -0.0319

Sequence: RRIRRRPPRLPRPRPRPHCAPRP
- shrunken log2 fold change: 0.419

Sequence: RRIRTRPPRLPRPRPRPTTKPRP
- shrunken log2 fold change: -0.0673

Sequence: RRIRKRPPRLPRPRPRPYFKPRP
- shrunken log2 fold change: -0.382

Sequence: RRIRRRPPRLPRPRPRPDHSPRP
- shrunken log2 fold change: 0.0322

Sequence: RRIRPRPPRLPRPRPRPDVIPRP
- shrunken log2 fold change: -0.0251

Sequence: RRIRYRPPRLPRPRPRPPWNPRP
- shrunken log2 fold change: -0.161

Sequence: RRIRIRPPRLPRPRPRPPGNPRP
- shrunken log2 fold change: -0.233

Sequence: RRIRIRPPRLPRPRPRPEMTPRP
- shrunken log2 fold change: 0.104

Sequence: RRIRQRPPRLPRPRPRPHNHPRP
- shrunken log2 fold change: -0.811

Sequence: RRIRGRPPRLPRPRPRPNHFPRP
- shrunken log2 fold change: -0.0611

Sequence: RRIRFRPPRLPRPRPRPDALPRP
- shrunken log2 fold change: -0.0978

Sequence: RRIRLRPPRLPRPRPRPHEYPRP
- shrunken log2 fold change: -0.0491

Sequence: RRIRQRPPRLPRPRPRPGSSPRP
- shrunken log2 fold change: -0.172

Sequence: RRIRMRPPRLPRPRPRPRRAPRP
- shrunken log2 fold change: 1.55

Sequence: RRIRRRPPRLPRPRPRPWAVPRP
- shrunken log2 fold change: -0.00967

Sequence: RRIRHRPPRLPRPRPRPQQKPRP
- shrunken log2 fold change: -0.0153

Sequence: RRIRDRPPRLPRPRPRPMFPPRP
- shrunken log2 fold change: -0.257

Sequence: RRIRMRPPRLPRPRPRPCNDPRP
- shrunken log2 fold change: -0.165

Sequence: RRIRLRPPRLPRPRPRPKTHPRP
- shrunken log2 fold change: -0.0161

Sequence: RRIRCRPPRLPRPRPRPQMLPRP
- shrunken log2 fold change: 0.0498

Sequence: RRIRARPPRLPRPRPRPKMAPRP
- shrunken log2 fold change: 0.291

Sequence: RRIRRRPPRLPRPRPRPDTPPRP
- shrunken log2 fold change: 0.342

Sequence: RRIRYRPPRLPRPRPRPKMCPRP
- shrunken log2 fold change: 0.00281

Sequence: RRIRVRPPRLPRPRPRPIYQPRP
- shrunken log2 fold change: -0.27

Sequence: RRIRARPPRLPRPRPRPGQYPRP
- shrunken log2 fold change: 0.0253

Sequence: RRIRVRPPRLPRPRPRPTRRPRP
- shrunken log2 fold change: 0.529

Sequence: RRIRDRPPRLPRPRPRPNQMPRP
- shrunken log2 fold change: -0.0987

Sequence: RRIRRRPPRLPRPRPRPVFYPRP
- shrunken log2 fold change: -0.0199

Sequence: RRIRSRPPRLPRPRPRPTALPRP
- shrunken log2 fold change: 0.14

Sequence: RRIRPRPPRLPRPRPRPWLVPRP
- shrunken log2 fold change: 0.159

Sequence: RRIRQRPPRLPRPRPRPAMPPRP
- shrunken log2 fold change: 0.306

Sequence: RRIRTRPPRLPRPRPRPYWGPRP
- shrunken log2 fold change: -0.0337

Sequence: RRIRVRPPRLPRPRPRPNDRPRP
- shrunken log2 fold change: -0.0172

Sequence: RRIRWRPPRLPRPRPRPQPAPRP
- shrunken log2 fold change: 0.812

Sequence: RRIRRRPPRLPRPRPRPKCMPRP
- shrunken log2 fold change: -0.172

Sequence: RRIRSRPPRLPRPRPRPIYRPRP
- shrunken log2 fold change: 0.0394

Sequence: RRIRCRPPRLPRPRPRPWTWPRP
- shrunken log2 fold change: 0.00573

Sequence: RRIRVRPPRLPRPRPRPNVKPRP
- shrunken log2 fold change: -0.159

Sequence: RRIRERPPRLPRPRPRPASTPRP
- shrunken log2 fold change: -0.527

Sequence: RRIRPRPPRLPRPRPRPIEYPRP
- shrunken log2 fold change: 0.0392

Sequence: RRIRERPPRLPRPRPRPRMKPRP
- shrunken log2 fold change: -0.243

Sequence: RRIRLRPPRLPRPRPRPYYWPRP
- shrunken log2 fold change: -0.172

Sequence: RRIRERPPRLPRPRPRPCSSPRP
- shrunken log2 fold change: 0.00543

Sequence: RRIRDRPPRLPRPRPRPTQDPRP
- shrunken log2 fold change: 1.27

Sequence: RRIRPRPPRLPRPRPRPWLHPRP
- shrunken log2 fold change: -0.173

Sequence: RRIRHRPPRLPRPRPRPCGSPRP
- shrunken log2 fold change: -0.153

Sequence: RRIRTRPPRLPRPRPRPNLDPRP
- shrunken log2 fold change: 0.0338

Sequence: RRIRGRPPRLPRPRPRPQCHPRP
- shrunken log2 fold change: 0.48

Sequence: RRIRLRPPRLPRPRPRPADLPRP
- shrunken log2 fold change: 0.0231

Sequence: RRIRVRPPRLPRPRPRPLANPRP
- shrunken log2 fold change: -0.0581

Sequence: RRIRARPPRLPRPRPRPPFKPRP
- shrunken log2 fold change: 0.368

Sequence: RRIRCRPPRLPRPRPRPHWQPRP
- shrunken log2 fold change: -0.365

Sequence: RRIRRRPPRLPRPRPRPMMRPRP
- shrunken log2 fold change: 0.73

Sequence: RRIRQRPPRLPRPRPRPGSMPRP
- shrunken log2 fold change: -0.174

Sequence: RRIRHRPPRLPRPRPRPHFPPRP
- shrunken log2 fold change: -0.324

Sequence: RRIRIRPPRLPRPRPRPRPNPRP
- shrunken log2 fold change: 0.091

Sequence: RRIRFRPPRLPRPRPRPWNWPRP
- shrunken log2 fold change: 0.0169

Sequence: RRIRMRPPRLPRPRPRPRMVPRP
- shrunken log2 fold change: 0.125

Sequence: RRIRMRPPRLPRPRPRPGAIPRP
- shrunken log2 fold change: 1.4

Sequence: RRIRVRPPRLPRPRPRPAWFPRP
- shrunken log2 fold change: 0.0841

Sequence: RRIRIRPPRLPRPRPRPVCEPRP
- shrunken log2 fold change: 0.0639

Sequence: RRIRKRPPRLPRPRPRPMTMPRP
- shrunken log2 fold change: -0.00185

Sequence: RRIRPRPPRLPRPRPRPSAVPRP
- shrunken log2 fold change: 0.0719

Sequence: RRIRGRPPRLPRPRPRPRCRPRP
- shrunken log2 fold change: 0.957

Sequence: RRIRWRPPRLPRPRPRPAMLPRP
- shrunken log2 fold change: 0.365

Sequence: RRIRCRPPRLPRPRPRPKKVPRP
- shrunken log2 fold change: -0.00128

Sequence: RRIRFRPPRLPRPRPRPDPGPRP
- shrunken log2 fold change: -0.162

Sequence: RRIRARPPRLPRPRPRPDRSPRP
- shrunken log2 fold change: -0.0282

Sequence: RRIRVRPPRLPRPRPRPIAGPRP
- shrunken log2 fold change: 0.0142

Sequence: RRIRCRPPRLPRPRPRPFVMPRP
- shrunken log2 fold change: -0.153

Sequence: RRIRIRPPRLPRPRPRPPSMPRP
- shrunken log2 fold change: -0.206

Sequence: RRIRKRPPRLPRPRPRPRWVPRP
- shrunken log2 fold change: 0.642
